Experimental data published in US10851152B2, “Polymerized peptide and gel having collagen-like structure” (WASEDA UNIVERSITY, priority 2015, dated 2020).
No end group written: not given here.

What was measured:
[1] = test system: human dermal fibroblasts (HDF); test: Cell adhesion assay with multifunctional polymerized gel; format: cell-based; conditions: gels with 1% by weight CCC2-GFOGER (short) triple-chain peptide unless ligand free; 37° C., three hours
Protocol: CCC2-GPOGPR (short) (SEQ ID NO. 10), CC2-GPOGPR (short) (SEQ ID NO. 23) or C2-GPOGPR (short) (SEQ ID NO. 24) was respectively dissolved in a degassed ultrapure water, followed by heating it at 80° C. for 5 min, and then stranded at 4° C. overnight to form triple helix. These were mixed at various ratios, and DMSO was then added thereto in a way such that a final concentration became 10%, followed by adding them into a 96-well plate by 50 μL each. At that time, a triple-chain peptide containing CCC2-GFOGER (short) (SEQ ID NO. 11) of a weight ratio 1% was added to all the peptide mixture liquids, and those to which the triple-chain peptide was not added were recited as “Ligand-free.” This plate was then left to stand Mill in a container filled with 10% DMSO for four days or longer to turn the peptide solution into a gel. These gels were able to dilute DMSO by immersion in a cell culture medium overnight, and then used in the following experiments employing cells. Here, type I collagen was used as a positive control.
The human dermal fibroblasts (HDF) were stripped with 0.05% trypsin/EDTA, followed by centrifuged at 800 rpm in a 15 mL tube to collect the cells. […]

[2] = test system: human fibroblast (HDF); test: Adhesion of human fibroblasts to polymerized peptide with RGD motif linked via linker; format: cell-based; conditions: 37° C., about an hour
Protocol: CCC2-KGHRGF (SEQ ID NO. 18) was synthesized by a method similar to that of example 2. After forming triple helix with such CCC2-KGHRGF (SEQ ID NO: 18) at 1.11 mg/ml, DMSO was added to the concentration of 10%, and a mineral oil was then layered thereon, followed by oxidized and polymerized at room temperature for a week. Next, the polymerized peptide employing CCC2-KGHRGF (SEQ ID NO: 18) was diluted to 30 μg/ml, and a 96-well plate was then coated with such polymerized peptide overnight. Then, the solution was removed, followed by adding thereto 1 mg/ml BS (PEG)5 (by Pierce, catalog No. 21581) dissolved in a 5 mg/ml NaHCO3 aqueous solution, and then reacted at room temperature for about an hour to bind the linker. Next, there was added 10 mM ethanolamine (EA) or 100 μg/ml RGD pep (SEQ ID NO. 22) dissolved in a 5 mg/ml NaHCO3 aqueous solution, followed by allowing reaction to link CCC2-KGHRGF (SEQ ID NO: 18) to the linker at room temperature for about an hour.
5 mg/ml BSA was added to a gel linked with the above RGD motif, to perform blocking for about an hour. […] After air drying, microscopic observation was carried out, and there was evaluated a binding ability of HDF to the RGD motif linked to such polymerized peptide via a linker.

[3] = CD spectrum measurement of triple-helical structure and its thermal stability; format: physicochemical; conditions: 225 nm; temperature gradient 18° C./h
Protocol: The structure of the peptide was confirmed by CD spectrum (circular dichroism spectrometer J-820, JASCO Corporation). A peptide powder was dissolved in a degassed 0.05% TFA/H2O to prepare a solution of 1 mg/ml. After heating at 80° C. for 5 min, the solution was left to stand at 4° C. overnight to cause refolding as a measurement sample. CD spectrum was measured under the conditions of: temperature 4° C., 37° C., 80° C.; cell length 0.05 cm; sensitivity standard (100 mdeg); measurement wavelength 250 to 190 nm; data collection interval 0.2 nm; scanning speed 50 nm/min; response 0.5 sec; band width 1 nm; cumulated number 4. A signal obtained (θobs) was expressed as a residue average molar ellipticity (θmrw). θmrw was calculated by the following formula.
A thermal stability of the triple-helical structure was observed by monitoring θmrw, 225 associated with a change in temperature. The measurement conditions were: 4 to 75° C. or 4 to 90° C.; cell length 0.05 cm; measurement wavelength 225 nm; data collection interval 0.5° C.; temperature gradient 18° C./h; sensitivity standard (100 mdeg); response 2 sec; band width 1 nm. It was determined that the triple-helical structure completely turned into a random coil structure in a region where the signal was linearly diminishing.

[4] = Remaining thiol group (Ellman's reagent) in oxidative polymerization reaction; format: physicochemical; conditions: 10% DMSO, peptide 1% (w/v)
Protocol: Degassed water was used to prepare a peptide solution having a concentration of 1.11% (w/v), and the solution was then put into a PCR tube. After heating this solution at 80° C. for 5 min, it was then left to sand still at 4° C. overnight. By adding DMSO to this solution, there was prepared a peptide solution having a final concentration of 10% DMSO, peptide 1% (w/v). The PCR tube was then filled with a mineral oil in a way such that the mineral oil covered the surface of the solution. In every measurement, the mineral oil was eliminated from the peptide solution to prepare a peptide solution for oxidation monitoring. Ellman's reagent was prepared in a way such that 9 mg/ml of DTNB was present in 50 mM of a phosphate buffer solution (pH 8.4). 33 mM phosphate buffer solution (pH 8.4) and Ellman's reagent 1.5 mg/ml were left to stand for […], then a light absorbance was then measured after a solution with a final concentration of peptide 0.167 mg/ml. Recorded were changes in absorbance with time, with a moment when DMSO was added being a starting point (0 hour). Since the Ellman's reagent generates 5-mercapto-2-nitrobenzoate (λ max=412 nm, ε=1.55×10^4) depending on the amount of thiol groups (referred to as “SH groups” hereunder) in the peptide, measured was a absorbance at 412 nm. After the measurement, optical path length was compensated by measuring absorbance at 997 nm and 900 nm.

[5] = Hydrogel formation judged by holding of a stainless ball; format: physicochemical; set-up: key to gel formation, Time (hour) 9 / gel formation, Time (hour) 12 / gel formation, Time (hour) 15 / gel formation, Time (hour) 24 / gel formation, Time (hour) 32 / gel formation, Time (hour) 74 / gel formation, Peptide concentration 0.1% (w/v) / gel formation, Peptide concentration 0.2% (w/v) / gel formation, Peptide concentration 0.3% (w/v) / gel formation, Peptide concentration 0.5% (w/v) / gel formation, Peptide concentration 0.7% (w/v) / gel formation, Peptide concentration 1.0% (w/v): ◯: Gelated; X: Failed to gelate
Protocol: Degassed water was used to prepare a peptide solution having a concentration of 1.11% (w/v) or 1.66% (w/v), and the solution was then put into a PCR tube. After heating this solution at 80° C. for 5 min using a polymerase chain reaction (PCR) machine (TaKaRa PCR Thermal Cycler, TAKARA BIO INC.), the solution was then left to stand at 4° C. overnight. By adding DMSO and water to this solution, there was prepared a peptide solution having a concentration of 10% DMSO, 0.1 to 1.5% (w/v). The PCR tube was then filled with a mineral oil in a way such that the mineral oil covered the liquid surface, followed by allowing the solution to stand at room temperature for a given period of time to achieve a gel. Then, gel formation was determined by looking at whether a stainless ball could be held by the gel.

[6] = Hydrogel stability to reduction treatment (DTT) or water with pipetting; format: physicochemical; conditions: water added instead of reducing solution; pipetting about 90 times/min
Protocol: There, verification was made on whether gel caused a collapse by breaking the disulfide cross-linking by a reduction treatment. A reducing solution of 100 μl (100 mM DTT, 50 mM phosphate buffer solution (pH 8.4)) or water was added to the hydrogel (30 μl) prepared. […] Then, pipetting procedure was respectively performed at a frequency of about 90 times/min and a volume of 100 μl/each time, using a yellow tip (up to 200 μl).

[7] = Thermal stability of hydrogel (sinking of stainless ball); format: physicochemical; conditions: hydrogel of 1% (w/v) peptide; 10 min per temperature
Protocol: After mounting the stainless ball on the hydrogel prepared, they were moved to a thermostatic device, and were left to stand for 10 min at various temperatures between 35° C. and 95° C. Whether gel collapse had occurred was determined by judging the sinking of the stainless ball.

CCC(POG)4FOGERG(POG)4CCC [CCC2-GFOGER (short)]
adhesion and aggregation of human dermal fibroblasts on gel [1]: each human dermal fibroblast elongated and adhered respectively

GRGDS-NH2 [soluble RGD, soluble peptide having the RGD motif, as a control]
adhesion of HDF [2]: binding ability of HDF was not exhibited

CC(POG)6PRG(POG)5CC (CCPPGPPGPPGPPGPPGPPGPRGPPGPPGPPGPPGPPGCC; not fully specified; hydroxyproline; MOD_RES (4)..(4) 4-Hydroxyproline; MOD_RES (7)..(7) 4-Hydroxyproline; MOD_RES (10)..(10) 4-Hydroxyproline; MOD_RES (13)..(13) 4-Hydroxyproline; MOD_RES (16)..(16) 4-Hydroxyproline; MOD_RES (19)..(19) 4-Hydroxyproline; MOD_RES (25)..(25) 4-Hydroxyproline; MOD_RES (28)..(28) 4-Hydroxyproline; MOD_RES (31)..(31) 4-Hydroxyproline; MOD_RES (34)..(34) 4-Hydroxyproline; MOD_RES (37)..(37) 4-Hydroxyprolin) [CC2]
thermal denaturation (change in θ225 as temperature changed) [3]: about 75 °C
time in which peptide turned into a gel [4]: 74 h
gel-forming capability ([5]; 1% (w/v) peptide, 10% DMSO, room temperature, up to three days): capable of turning into gels
gel formation, Time (hour) 9 ([5]; 1% (w/v) peptide, 9 hour): X
gel formation, Time (hour) 12 ([5]; 1% (w/v) peptide, 12 hour): X
gel formation, Time (hour) 15 ([5]; 1% (w/v) peptide, 15 hour): X
gel formation, Time (hour) 24 ([5]; 1% (w/v) peptide, 24 hour): X
gel formation, Time (hour) 32 ([5]; 1% (w/v) peptide, 32 hour): ◯
gel formation, Time (hour) 74 ([5]; 1% (w/v) peptide, 74 hour): ◯
gel formation, Peptide concentration 0.3% (w/v) ([5]; oxidizing conditions: room temperature, three days, 0.3% (w/v)): X
gel formation, Peptide concentration 0.5% (w/v) ([5]; oxidizing conditions: room temperature, three days, 0.5% (w/v)): X
gel formation, Peptide concentration 0.7% (w/v) ([5]; oxidizing conditions: room temperature, three days, 0.7% (w/v)): X
gel formation, Peptide concentration 1.0% (w/v) ([5]; oxidizing conditions: room temperature, three days, 1.0% (w/v)): ◯
gel collapse on adding water [6]: gel collapse was observed
temperature at which the stainless ball completely sank [7]: 95 °C
